According to publication PMC4856479 (Nature, 2016):

Experiments:
[1] = biological target: mono-ubiquitin (untagged, native N- and C-termini) (UniProt P0CG48 1-76); test: crystal structure
linear di-ubiquitin = linear di-ubiquitin (UniProt P0CG48 1-76; P0CG48 1-76); test: ITC

B1: HOIP-RBR (residues 696–1072) (domain or fragment, human, UniProt Q96EP0 696-1072, looked up)
chain: AQECAVCGWALPHNRMQALTSCECTICPDCFRQHFTIALKEKHITDMVCPACGRPDLTDDTQLLSYFSTLDIQLRESLEPDAYALFHKKLTEGVLMRDPKFLWCAQCSFGFIYEREQLEATCPQCHQTFCVRCKRQWEEQHRGRSCEDFQNWKRMNDPEYQAQGLAMYLQENGIDCPKCKFSYALARGGCMHFHCTQCRHQFCSGCYNAFYAKNKCPEPNCRVKKSLHGHHPRDCLFYLRDWTALRLQKLLQDNNVMFNTEPPAGARAVPGGGCRVIEQKEVPNGLRDEACGKETPAGYAGLCQAHYKEYLVSLINAHSLDPATLYEVEELETATERYLHVRPQPLAGEDPPAYQARLLQKLTEEVPLGQSIPRRRK
- binding result [1]: binds
- binding result (linear di-ubiquitin): binds
